Laboratory results from PMC9849103 (Nature Communications, 2023).

Molecular target: WT RBD (SARS-CoV-2 Wuhan-Hu-1 spike receptor binding domain) (SARS-CoV-2 (Wuhan-Hu-1), UniProt P0DTC2)
Assay: BLI
Conditions: both partners purified

Binder | Kd [nM]
C978 (antibody, V domains shown, source: 293-6E cells, transfected, purified (Protein G Sepharose)) VH: QVQLVQSGAEVKKPGSSVKVSCKASGATFSNYIISWVRQAPGQGLEWMGRTIPLLDIANYAQKFQGRVTITADKSTRIVYMHLGSLTSEDTAVYYCATGKGYSSSSAAYYFDHWGQGTLVTVSS VL: QSVLTQPPSVSGAPGQRVTISCTGTNSNIGAGYDIHWYQQLPGTAPKLLIYGSNNRPSGVPDRFSGSKSGTSASLAITGLQAEDEADYYCQSYDSSLSGSEVFGGGTKLTVL | 1.33
C1047 (antibody, V domains shown, source: 293-6E cells, transfected, purified (Protein G Sepharose)) VH: EVQLVQSGAEVKKPGESLKISCKGSGYSFISYWIVWVRQMPGKGLEWIGIIYPGDSDTIYSPSFQGQVTLSADKSISTAYLQWSSLKASDTAIYYCAKMVTSGTSYYETRGYASSGPFDNWGQGTLVTVSS VL: DIQLTQSPSSLSASVGDRVTITCRASQGISSALAWYQQKPGKAPKLLIYDASSLESGVPSRFSGSGSGTDFTLTISSLQPEDFATYYCQQSDNFGPGTKVDI | 4.99
C971 (antibody, V domains shown, source: 293-6E cells, transfected, purified (Protein G Sepharose)) VH: EVQLVESGGGLVKPGGSLRLSCAASGFTFNNAWMTWVRQAPGKGLEWVGRIKSKTDGGTTDYGTPAKGRFTISRDDSKNTLYLQMKSLRTEDTAVYYCTTVDVQGIWELLENDAFDIWGQGTMVTVSS VL: EIVLTQSPGTLSLSPGERATLSCRATQAISSTYLAWYQQKPGQAPRLLIYGAFSRAPGIPDRFSGSGSETDFTLTISRLEPEDFAVYYCQQSDRSPFTFGPGTKVDIK | 0.949
C1040 (antibody, V domains shown, source: 293-6E cells, transfected, purified (Protein G Sepharose)) VH: QVQLVESGGGVVQPGRSLRLSCAASGFSFINYNMHWVRQAPGKGLEWVAVIWYDGSNKYYADSVKGRFTISRDNSKNTLYLQMNSLRVEDTAVYYCARDPAITEAEIDYWGQGTLVTVSS VL: DVVMTQSPLSLPVTLGQAASISCRSSQSLVHSDGNTYLNWFQQRPGQSPRRLIYRVSNRDSGVPDRFSASGSGTDFTLKISRVEAEDVGVYYCMQGTHWPWTFGQGTKVEIK | 2.08
C1049 (antibody, V domains shown, source: 293-6E cells, transfected, purified (Protein G Sepharose)) VH: EVQLVQSGAEVKKPGESLKISCKSSGYSFISHWIGWVRQMPGKGLEWMGIIWPGDSDTRYSPSFQGQVTISVDKSITTVYLQWSSLKAADTAMYYCARRGSSWEVDYWGQGTLVTVSS VL: not shown | 2.35
C963 (antibody, V domains shown, source: 293-6E cells, transfected, purified (Protein G Sepharose)) VH: QVQLVQSGAEVKKPGSSVRVSCKASGGTFSSFTITWVRQAPGQGLEWMGRIIPNLNIPNYAQRFQGRITITAEKSTSTAYLELSSLRSEDTAVYYCARGVGYSGSGSNWYFDLWGRGTLVTVSS VL: QSVLTQPPSVSGAPGQRVTISCTGSSSNIGAGYDVHWYQQLPGTAPKLLISGHINRPSGVPDRFSGSTSGTSASLAITGLQAEDEADYYCQSYDSSLSDSVFGGGTKLTV | 0.653
C2488 (antibody, V domains shown, source: 293-6E cells, transfected, purified (Protein G Sepharose)) VH: QVQLVESGGGVVQPGRSLRLSCAASGFTFSTHGMHWVRQAPGKGLEWMAVIYFDGSNKYYADSVKGRFAISRDNSKNTLFLQMNSLRADDTAVYHCATNSAGYGDSYETFDIWGQGTMVSVSS VL: EIVMTQSPATLSVSPGERATLSCRASHSVGTNLAWYQQKPGQAPRLLIYGAFTRAAGISARFSGSGSGTEFTLTISSLQSEDLAVYYCQQYENWPPYTFGQGTKLEIK | 8.95
C1034 (antibody, V domains shown, source: 293-6E cells, transfected, purified (Protein G Sepharose)) VH: QLQLQESGPGLVKPSETLSLTCTVSGGSVSSNNHYWGWIRQPPGKGLEWIGSISSSGSTHHNPSLRSRVTISVDTSKNHFSLKLNSVTATDTAVYYCARVDSSGWYTGDVFDVWGQGTMVTVSS VL: DIQMTQSPSSLSASVGDRVTITCRASQTINNYLNWYQQKPGKPPKLLIYAAFSLHSGVPSRFSGSRSGTDFTLTISSLQPEDFATYYCQHSYSTMCSFGQGTKLEIK | 1.98
B1032 (antibody, V domains shown, source: 293-6E cells, transfected, purified (Protein G Sepharose)) VH: EVQLVESGGGLVQPGRSLRLSCEASGFTFEDFAMHWVRQAPGKGLEWVSGVSWNSGTIGYGDSVKGRFIIIRDNAKNSVYLQMNSLRPEDTAFYYCVKDMATYYKDISGTYGMDVWGQGTTVTVSS VL: SYELTQTPSVSVAPGQTARITCVGNNIGSESVHWYQQKSGRAPVLVVYDDSDRPSGIPERFSGSTSGTTATLIINRVEAGDEAGYYCQVWDASSDHVVFGGGTKLTVL | 0.52
B1037 (antibody, V domains shown, source: 293-6E cells, transfected, purified (Protein G Sepharose)) VH: QVQLVQSGAEVKKPGSSVKVSCKASGDTFISYAITWVRQAPGQGLEWMGRIIPILGVADYAPKFQGRVTITADKSTSTAYMELSSLRSEDTAVFYCASWRGREYNGYDWTGPTRGFDSWGQGTLVTVSS VL: not shown | 3.21
B2058 (antibody, V domains shown, source: 293-6E cells, transfected, purified (Protein G Sepharose)) VH: EVQLVESGGGLIQPGGSLRLSCAASGLTVSSNYMSWVRQAPGKGLEWVSVIYPGGSTFYADSVKGRFTISRDNSKNTLYLQLNSLRADDTAVYFCARGDGYTDYYYGLDVWGQGTTVTVSS VL: DIQLTQSPSSLSASVGDRVTITCRASQSISSYLNWYQQKPGKAPKLLIYAASSLQSGVPSRFSGSGSGTDFTLTISSLQPEDFATYYCQQRGFGQGTKVEIK | 1.02
B2006 (antibody, V domains shown, source: 293-6E cells, transfected, purified (Protein G Sepharose)) VH: EVQLVQSGAEVKKPGESLKISCKGFGSSFTNYWIGWVRQMPGKGLEWMGSVYAGDSDTRYSPSFQGQVTVSADKSITTAYLQWTSLKASDTAMYFCARASQGNYFDFWGQGTLVTVSS VL: DIQMTQSPSTLSASVGDRVTITCRASQSISRWLAWYQQKPGKAPKLLIYDASILESGVPSRFSGSGSGTDFTLTISSLQPDDYATYYCQQFYSNLYTFGQGTKLEIK | 0.582
B1030 (antibody, V domains shown, source: 293-6E cells, transfected, purified (Protein G Sepharose)) VH: QVQLVQSGAEVKKPGASVRVSCKASGYTFTSYYMHWVRQAPGQGLEWMGIINPSDGGASYAQKFQGRVTMTSDTSTSTVYMELSSLRSEDTAVYYCARALRHHSSGWYSALDFQHWGQGTLVTVSS VL: not shown | 5.06
B1002 (antibody, V domains shown, source: 293-6E cells, transfected, purified (Protein G Sepharose)) VH: QVQLVQSGAEVKKPGSSVKVTCRASGGTFSNLAISWVRQAPGQGLEWMGSIIPMFTISNYAQKLKGRVTITADKSTSTAYMELSSLRSGDTAVYFCASLGSNITVVRGAPITDHHFHYWGQGTLVTVSS VL: QSALTQPASVSGSPGQSVTISCTGTSSDVGTYNLVSWYQQHPGKAPKLMIYEVSKRPSGVSNRFSGSKSGNTASLTISGLQAEDEADYYCCSYAASSTTHWVFGGGTKLAV | 0.732
B2014 (antibody, V domains shown, source: 293-6E cells, transfected, purified (Protein G Sepharose)) VH: QVQLVQSGAELKRPGASVKVSCKASGYTFSDYHMNWVRQAPGQGLEWMGIINPSGGGASYPQKFQGRVTMTRDTSTSTVFMQLNSLTYEDTAVYYCARGTPPSRGWYGGFDNWGQGTLVTVSS VL: QSVLTQPPSVSGAPGQRITISCTGSTSNIGAGYDVQWYQQLPGTAPKLLIFDNNNRPSGVPDRFSGSKSGTSASLAITGLQAEDEADYYCQSFDSTLSGSTFVFGPGTKVTVL | 1.24
B1011 (antibody, V domains shown, source: 293-6E cells, transfected, purified (Protein G Sepharose)) VH: QVQLVQSGAEVKKPGASVKVSCKASGYTFISYYTHWVRQAPGQGLEWMGIINPSDGYTSYAQKFQGRVTMTRDTSASTVYMELSSLRSEDTAVYYCARDSSIAARVVAWGQGTLVTVSS VL: DIQMTQSPSSLSASVGDRVTITCQASQDIYNYLNWYQQKPGKAPKLLIFDAINLETGVPSRFSGSGSGTDFTFTISSLQPEDIATYYCQQHDNLPYSFGQGTKLEIK | 0.893
B1012 (antibody, V domains shown, source: 293-6E cells, transfected, purified (Protein G Sepharose)) VH: QVQLVQSGAEVKKPGASVKVSCKASGYTFISYYTHWVRQAPGQGLEWMGIINPSDGYTSYAQKFQGRVTMTRDTSASTVYMELSSLRSEDTAVYYCARDSSIAARVVAWGQGTLVTVSS VL: DIQMTQSPSSLSASVGDRVTITCQASQDIGNYLNWYQQKPGKAPKLLIFDASNLEAGVPSRFSASGSGTDFTFAISSLQPEDIAAYYCQQHDDLPYSFGQGTTLEIK | 0.572
C3102 (antibody, V domains shown, source: 293-6E cells, transfected, purified (Protein G Sepharose)) VH: QVQLVQSGAEVKKPGSSVKVSCKASGGTFRRYAISWVRQAPGQGLEWMGGIIPIAGAADYAQKFQARVTITADESTSTAYLELSSLRSEDTAVYYCAREISYCSGAPCYAGYYDYGMDVWGQGTTVTVSS VL: QSVLTQPPSASGTPGQRVTISCSGNSSNIGSNSVNWYQQLPGTAPKLLIKSTNQRPSGVPDRFSGSKSGTSASLAISGLQSEDEADYYCAAWEDVLNAVVFGGGTMLTV | 0.639
B1034 (antibody, V domains shown, source: 293-6E cells, transfected, purified (Protein G Sepharose)) VH: QVQLVQSGSEVKKPGASVKVSCKASGNTFITYYTHWVRQAPGQGLEWMGVIKPSDGYTNYAQKFQGRVTMTRDTSASTVYMELSSLTSDDTAVYYCARDSSIAARVVDWGQGTLVTVSS VL: DIQMTQSPSSLSASVGDRVTITCQASQDIYNYLNWYQQKPGKAPKLLIFDAINLETGVPSRFSGSGSGTDFTLTISSLQPEDIATYYCQQHDNLPYSFGQGTKLEIK | 0.734
B1026 (antibody, V domains shown, source: 293-6E cells, transfected, purified (Protein G Sepharose)) VH: QMQLVQSGPEIKKPGTSVKVSCKASGFTFSNSAVQWVRQARGQRLEWIGWIVVGSGDPNYAQKFQERVTLTRDMSTSTAYMELSSLRSEDTAVYYCATNHCSRTICSDGFDIWGQGTVVTVSS VL: EIVLTQSPVSLSLSPGERATLSCRASQTVRSSYFVWYQQKLGQAPRLLIYSASSRAAGIPDRFSGSGSGTDFTLTISRLEPEDFAVYYCQQYGSSPWTFGQGTKVEIK | 12
B2064 (antibody, V domains shown, source: 293-6E cells, transfected, purified (Protein G Sepharose)) VH: QVQLVQSGAEVKKPGSSVNVSCKASGGTLNIYTFSWVRQAPGQGLEWVGTIVPLVGKANYPHKFQGRVTITADKSTSTVNMELSSLRSEDTAVYYCASEVLDNLRDGYNFWGQGTLVTVSS VL: DIQMTQSPSSLSASVGDRVTITCRASQSVSSYLNWYQQKPGKAPKLLIYAVSSLQSGVPSRFSGSGSGTDFTLTISSLQPEDFATYYCQQTYNTLTFGGGTKVEIK | 0.866
C2606 (antibody, V domains shown, source: 293-6E cells, transfected, purified (Protein G Sepharose)) VH: QVQLVQSGAEVKKPGSSVKVSCKASGDTFRSYAISWVRQAPGQGLEWMGRIIPMLGITTYEQKYQGRLKIIADKSTSTAYMELSSLRSEDTAVYFCARDGVGATEPYYYDYWGQGTLVTVSS VL: QSVLTQPASVSGSPGQSIIISCTGTSSDVGKYDFVSWYQQHPGKAPKLMIYDVSKRPSGVSDRFSGSKSGNTASLTISGLQAEDEADYHCASYTSDSSYLVFGGGTKLTVL | 0.743
C2655 (antibody, V domains shown, source: 293-6E cells, transfected, purified (Protein G Sepharose)) VH: QVQLVQSGAEVKKPGSSVKVSCKASGGTFNSYAISWVRQAPGQGLEWMGGIIHVLGTANYAQRFQGRVTITADESTSTVYMELSSLRSEDTAVYYCARVGAPLGRADSGYDFYYYGMDVWGQGTTVTVSS VL: not shown | 1.34
